Measurements as given in patent US20240069022A1 (ASAHI KASEI, published 2024).

B1: Generic Antibody A (PA51B2) (antibody, V domains shown)
VH: QVQLQQPGSVLVRPGASVKLSCKPSGYTFTGSWMHWTKQRPGQGLEWIGEIHPYSGNTNYNEKFRVKATLTVDTSSSTTYVDLSSLTSDDSAVYYCASGDFDAGFTYWGQGTLVTVSA
VL: DIVLTQSPASLAVSLGRRATISCKASQSVDYDGDSYMNWYQQKPGQPPKLLIYVASNLESGIPARFSGSGSGTDFTLNIHPVEEEDAATYYCQQTNEDPFTFGAGTKLELK
B2: Generic Antibody B (CP141A190.1) (antibody, V domains shown)
VH: QVQLQQPGAELVKPGASVKLSCKTSGYNFTSNWIHWVKQRPGQGLEWIGEINPSNGRANYNEKFKNKATLTVDKSSSTAFMHLSSLTSEDSAVYFCSRGDFDEGFTYWGQGTLVTVSA
VL: QIVLTQSPAIMSASLGERVTMTCTASSNVNSDYLHWYQQKPGSSPRLWIYTTSNLASGVPTRFSGNGSGTSYSLTISSMEAEDAATYYCHQYHRSPRTFGGGTKLEIK
B3: Specific Antibody A (EC50C1) (antibody, V domains shown)
VH: QVQLQQSGAELAKPGASVKMSCKASGYTFTSYWMNWVKQRPGQGLEWIGYINPNTGYTEYDQKFKDKATLTADKSSSTAYMQLSSLTSEDSAVYYCARYWAYFEYWGQGTTLTVSS
VL: DIKMTQSPSSMYASLGERVTITCKASQDINSYLSWFQQKPGKSPKTLIYRANRLVDGVPSRFSGSGSGQDYSLTISSLEYEDMGIYYCLQYDEFRTFGGGTKLEIK
B4: Specific Antibody C (EC162A3) (antibody, V domains shown)
VH: QVQLQQSGTELAKPGASVQMSCKASGYTFTSYWMHWVKQRPGQGLEWIGYINPNTGYTEYNQQFKDKATLTADKSSSTAYMQLSSLTSEDSAVYYCANYFAWFGYWGQGTLVTVSA
VL: DIKMTQSPSSMYASLGERVTVTCKASQDIYSYLNWFQQKPGKSPKTLIYRANRLVDGVPSRFSGSGSGQEYSLTISSLEHEDMGIYYCLQHDQHPYTFGSGTKLEIK
B5: Specific Antibody B (EC149C3) (antibody, V domains shown)
VH: QVQLQQSGAELVKPGASVKLSCKASDYTFTNFYIYWVKQRPGQGLEWIGEINPSNGYTTFNVKFKSKATLTVDKSSSTAYMQLSSLTSEDSAVYYCTRNYGGSRCAYWGQGTLVTVSA
VL: DVLMTQTPLSLPVSLGDQASISCRSSQSIVHSNGNTYLEWYLQKPGQSPKLLIYKVSNRFSGVPDRFSGSGSGTDFTLKISRVEAEDLGVYYCFQGSHVPWTFGGGTKLEIK

Assays:
[1] = target: recombinant ribosomal protein L7/L12 of Escherichia coli, tag fusion protein (Escherichia coli, UniProt P0A7K2 1-121); assay: ELISA, recombinant L7/L12 coated, antibody 10 ug/mL; +: A450 >=0.3
Source text: (§1) The thus-produced Specific Antibodies A to C (antibodies of the present invention) and Generic Antibodies A and B were used to obtain data on the reactivity with ribosome protein L7/L12 of plural genera of Enterobacteriaceae bacteria by means of ELISA. Seven species of Enterobacteriaceae bacteria were selected for the study: Escherichia coli (EC), Klebsiella pneumoniae (KP), Citrobacter freundii (CF), Enterobacter cloacae (ECL), Proteus mirabilis (PM), Salmonella enterica (SE), and Serratia liquefaciens (SL), which are frequently detected in food, beverage, environmental, or biological samples. Four species of bacteria other than Enterobacteriaceae (non-Enterobacteriaceae bacteria) were also selected for the study: Pseudomonas aeruginosa (PA), Staphylococcus aureus (SA), Bacillus subtilis (BS), and Enterococcus faecalis (EF), which are frequently detected in food, beverage, environmental, or biological samples. E. coli transformed with expression vectors incorporating DNA encoding the amino acid sequence of ribosomal protein L7/L12 of each of the above seven Enterobacteriaceae and four non-Enterobacteriaceae species were cultured using, e.g., LB medium, and the ribosomal protein L7/L12 was purified as a fusion protein by affinity columns using tag sequences derived from the expression vector.
(§2) 50 μL of 10 ng/mL solution of the ribosomal protein L7/L12 of each bacterial species was dropped into each well of a 96-well polystyrene plate for ELISA and solidified on the bottom of the plate. After washing each well three times with PBS-T (PBS with Tween 20), blocking treatment was performed with PBS containing 1% BSA (Bovine Serum Albumin). After blocking, the wells were washed three times with PBS-T, and 50 µL of 10 μg/mL solution of each of the Specific Antibodies A to C and Generic Antibodies A and B was dropped into each well for 1 hour for antigen-antibody reactions. After the reactions, the samples were washed three times with PBS-T, and then 0.5 μg/mL of HRP (Horse Radish Peroxidase) labeled secondary antibody (Goat Anti-mouse IgG: Goat Anti-mouse IgG), which is the enzyme for detection, was added dropwise. After the reaction, the wells were washed five times with PBS-T, and 100 μL of a mixture of tetramethylbenzidine (TMB) and hydrogen peroxide, the chromogenic substrate, was added dropwise to each well for the chromogenic reaction.

[2] = target: T1, ribosome protein L7/L12 of Pseudomonas aeruginosa, native, in bacterial lysate (Pseudomonas aeruginosa, UniProt Q9HWC8 1-122); assay: ELISA, bacterial lysate coated
T1 construct: also called PA; P. aeruginosa lysate
T1 sequence: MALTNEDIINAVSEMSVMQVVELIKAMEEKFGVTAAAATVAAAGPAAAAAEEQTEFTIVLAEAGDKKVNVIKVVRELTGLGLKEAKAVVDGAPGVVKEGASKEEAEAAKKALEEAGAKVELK
Source text: (§3) The thus-produced Specific Antibodies A to C (antibodies of the present invention) and Generic Antibodies A and B were used to obtain data on the reactivity with plural genera of Enterobacteriaceae bacteria and bacteria other than Enterobacteriaceae (non-Enterobacteriaceae bacteria) by means of ELISA. […] The seven species of Enterobacteriaceae bacteria and four species of non-Enterobacteriaceae bacteria described above were purchased and cultured from ATCC, prepared at 1×e⁸ cfu/mL each, and suspended in PBS. Each bacterium was lysed by sonication, and debris was removed by filtration through a filter with a 0.45-μm mesh opening to obtain the bacterial lysate of each bacterium.
(§4) 50 μL of the above bacterial lysate was dropped into each well of a 96-well polystyrene plate for ELISA and solidified on the bottom of the plate. After washing each well three times with PBS-T (PBS with Tween 20), blocking treatment was performed with PBS containing 1% BSA (Bovine Serum Albumin). After blocking, the wells were washed three times with PBS-T, and 50 μL of 10 μg/mL solution of each of the Specific Antibodies A to C and Generic Antibodies A and B was dropped into each well for 1 hour for antigen-antibody reactions. After the reactions, the samples were washed three times with PBS-T, and then 0.5 μg/mL of HRP (Horse Radish Peroxidase) labeled secondary antibody (Goat Anti-mouse IgG: Goat Anti-mouse IgG), which is the enzyme for detection, was added dropwise. After the reaction, the wells were washed five times with PBS-T, and 100 μL of a mixture of tetramethylbenzidine (TMB) and hydrogen peroxide, the chromogenic substrate, was added dropwise to each well for the chromogenic reaction.

[3] = target: T2, recombinant ribosomal protein L7/L12 of Pseudomonas aeruginosa, tag fusion protein (Pseudomonas aeruginosa, UniProt Q9HWC8 1-122); assay: ELISA, recombinant L7/L12 (10 ng/mL) coated
T2 sequence: T1 sequence
Source text: as §1, §2

[4] = target: T3, recombinant ribosomal protein L7/L12 of Bacillus subtilis, tag fusion protein (Bacillus subtilis, UniProt P02394 1-123); assay: ELISA, recombinant L7/L12 (10 ng/mL) coated
T3 sequence: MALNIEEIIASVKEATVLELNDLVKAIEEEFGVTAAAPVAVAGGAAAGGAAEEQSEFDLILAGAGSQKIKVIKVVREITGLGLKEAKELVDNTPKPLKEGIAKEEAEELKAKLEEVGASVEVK
Source text: as §1, §2

[5] = target: T4, ribosome protein L7/L12 of Bacillus subtilis, native, in bacterial lysate (Bacillus subtilis, UniProt P02394 2-123); assay: lateral-flow sandwich kit (a) on lysate; capture Specific Antibody A, gold-labelled detection Generic Antibody A
T4 construct: also called BS; B. subtilis lysate
T4 sequence: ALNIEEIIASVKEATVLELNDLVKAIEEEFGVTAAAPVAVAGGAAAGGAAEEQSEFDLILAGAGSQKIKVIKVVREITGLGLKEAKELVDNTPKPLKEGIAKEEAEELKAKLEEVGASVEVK

[6] = target: T4, ribosome protein L7/L12 of Bacillus …; assay: ELISA, bacterial lysate coated
Source text: as §3, §4

Chain of recombinant ribosomal protein L7/L12 of Escherichia coli, tag fusion protein (P0A7K2 whole entry, the tested form may be a part): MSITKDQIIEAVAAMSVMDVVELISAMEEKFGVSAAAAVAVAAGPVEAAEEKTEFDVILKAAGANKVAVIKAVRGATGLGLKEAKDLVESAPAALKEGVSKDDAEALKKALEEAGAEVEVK

Row | Binder | binding result [1] | binding result [2] | binding result [3] | binding result [4] | binding result [5] | binding result [6]
1 | B1 | binds | – | – | – | – | –
2 | B2 | binds | – | – | – | – | –
3 | B3 | binds | no binding (tested: Absorbance <0.3 at 10 ug/mL antibody) | no binding (tested: Absorbance <0.3 at 10 ug/mL antibody) | no binding (tested: Absorbance <0.3 at 10 ug/mL antibody) | no binding (tested: Visually negative) | –
4 | B4 | binds | no binding (tested: Absorbance <0.3 at 10 ug/mL antibody) | no binding (tested: Absorbance <0.3 at 10 ug/mL antibody) | no binding (tested: Absorbance <0.3 at 10 ug/mL antibody) | – | no binding (tested: Absorbance <0.3 at 10 ug/mL antibody)
5 | B5 | – | no binding (tested: Absorbance <0.3 at 10 ug/mL antibody) | no binding (tested: Absorbance <0.3 at 10 ug/mL antibody) | no binding (tested: Absorbance <0.3 at 10 ug/mL antibody) | – | no binding (tested: Absorbance <0.3 at 10 ug/mL antibody)
